Reference: the supplement of paper PMC9112550, “Optimization of the antimicrobial peptide Bac7 by deep mutational scanning” (BMC Biology, 2022)

These sequences were tested on Escherichia coli TOP10 (assay: shrunken log2 fold change of peptide-encoding DNA abundance (4.5 h post-induction vs induction); higher = less antimicrobial activity (less host growth inhibition)). Conditions: time post-induction: 4.5 h; library: site-saturation at positions 5, 18, 19, 20.
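Note: peptides expressed intracellularly from a pBAD plasmid library in pooled LB shake-flask culture, induced with 0.3% L-arabinose, DNA abundance read by NGS, three biological replicates, DESeq2 with apeglm shrinkage.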

Row | Sequence | shrunken log2 fold change
1 | RRIRFRPPRLPRPRPRPIIFPRP | -0.621
2 | RRIRDRPPRLPRPRPRPNITPRP | -0.289
3 | RRIRDRPPRLPRPRPRPPMIPRP | -0.588
4 | RRIRFRPPRLPRPRPRPNARPRP | 0.241
5 | RRIRVRPPRLPRPRPRPCLHPRP | -0.947
6 | RRIRMRPPRLPRPRPRPWTCPRP | -0.0398
7 | RRIRQRPPRLPRPRPRPWCSPRP | -0.0146
8 | RRIRNRPPRLPRPRPRPNNNPRP | -0.867
9 | RRIRCRPPRLPRPRPRPSPNPRP | -0.102
10 | RRIRIRPPRLPRPRPRPFQYPRP | -0.0506
11 | RRIRCRPPRLPRPRPRPAHNPRP | -0.151
12 | RRIRGRPPRLPRPRPRPCTKPRP | 0.235
13 | RRIRGRPPRLPRPRPRPVYHPRP | -0.174
14 | RRIRARPPRLPRPRPRPPFAPRP | 0.87
15 | RRIRLRPPRLPRPRPRPVNIPRP | -0.163
16 | RRIRTRPPRLPRPRPRPCVLPRP | 0.0134
17 | RRIRLRPPRLPRPRPRPLDKPRP | -0.122
18 | RRIRGRPPRLPRPRPRPCEHPRP | 0.149
19 | RRIRWRPPRLPRPRPRPGAHPRP | 0.32
20 | RRIRCRPPRLPRPRPRPKYNPRP | -0.696

Row | Sequence | shrunken log2 fold change
21 | RRIRPRPPRLPRPRPRPINHPRP | -0.619
22 | RRIRCRPPRLPRPRPRPWSKPRP | -0.498
23 | RRIRPRPPRLPRPRPRPAFSPRP | 0.117
24 | RRIRTRPPRLPRPRPRPDTMPRP | 0.0881
25 | RRIRLRPPRLPRPRPRPWFEPRP | -0.218
26 | RRIRQRPPRLPRPRPRPIQDPRP | 0.0208
27 | RRIRVRPPRLPRPRPRPAFEPRP | 0.125
28 | RRIRARPPRLPRPRPRPQYSPRP | -0.0321
29 | RRIRERPPRLPRPRPRPDYGPRP | -0.015
30 | RRIRERPPRLPRPRPRPQNPPRP | -0.213
31 | RRIRNRPPRLPRPRPRPFDPPRP | -0.805
32 | RRIRLRPPRLPRPRPRPTGFPRP | -0.158
33 | RRIRWRPPRLPRPRPRPPCDPRP | 0.255
34 | RRIRTRPPRLPRPRPRPMTDPRP | 0.0245
35 | RRIRYRPPRLPRPRPRPIKNPRP | -0.275
36 | RRIRVRPPRLPRPRPRPHGDPRP | 0.00703
37 | RRIRPRPPRLPRPRPRPKDLPRP | -0.146
38 | RRIRSRPPRLPRPRPRPYIKPRP | -0.234
39 | RRIRQRPPRLPRPRPRPVVWPRP | 0.586
40 | RRIRLRPPRLPRPRPRPPHVPRP | 0.989

Row | Sequence | shrunken log2 fold change
41 | RRIRPRPPRLPRPRPRPWNPPRP | -0.496
42 | RRIRRRPPRLPRPRPRPTSDPRP | 0.256
43 | RRIRSRPPRLPRPRPRPEYWPRP | 0.191
44 | RRIRNRPPRLPRPRPRPIQVPRP | -0.0304
45 | RRIRERPPRLPRPRPRPKSRPRP | 0.0203
46 | RRIRPRPPRLPRPRPRPIEWPRP | 0.015
47 | RRIRLRPPRLPRPRPRPHVPPRP | 0.0978
48 | RRIRTRPPRLPRPRPRPLPQPRP | 0.165
49 | RRIRMRPPRLPRPRPRPTKAPRP | 0.26
50 | RRIRTRPPRLPRPRPRPINCPRP | 0.00543
51 | RRIRNRPPRLPRPRPRPKPLPRP | -0.102
52 | RRIRERPPRLPRPRPRPSGTPRP | -0.117
53 | RRIRERPPRLPRPRPRPNCRPRP | -0.238
54 | RRIRIRPPRLPRPRPRPLLTPRP | -0.156
55 | RRIRDRPPRLPRPRPRPEPDPRP | 1.33
56 | RRIRKRPPRLPRPRPRPMHAPRP | 0.00395
57 | RRIRLRPPRLPRPRPRPQNCPRP | 0.0117
58 | RRIRMRPPRLPRPRPRPTTKPRP | 0.268
59 | RRIRYRPPRLPRPRPRPGRHPRP | -0.203
60 | RRIRSRPPRLPRPRPRPHKGPRP | -0.22
